# In the DeepSol protein solubility set:
# Test: soluble on expression in E. coli; label from the status in PepcDB or PDB records
row,Sequence,soluble on expression in E. coli
1,MVERKRWSEEFSEWFNEVIEEAGILDKRYPVKGMNVWLPYGLKIMRNIEKFIHEEMERTGHQEVLFPALIPETEFKKEAEHIAGFEGEVFWVTHAGHEPLDVRLVLRPTSETAMYSMFALWIRSHADLPFKVYQIVNVYRYETKHTRPLIRVREISRFFEAHTAHADFEDAERQIKEDLEIFDNLMRKLALAYIISKRPEWDKFPGAFYSLGAEVVMPDGRTLQIGTMHNYKQNFSKAYNILYEKEDGTHDYVHQTTFGMSERLLAAVIAIHGDDRGMVLPPTIAPIQVVIVPIPKKGSEEEVYSYAKGIEEELRDAGIRVYLDLRDKRPGWKFYDWELKGVPVRVEVGPIDVQNSTVVLARRDKLEKITVKREELVDKVRELFEDIMEFLYERANEWLESHIKRVDTLEEAKAVFEDRRGIVEIPWCGEESCGLKMEEELEAKMLGIPYPEEKAKAPEGSKCPVCGREAKFIARFARTY,soluble
2,GAMKNSFDRLIDGLAKDYGMPGFPEKKHEHEVYCFEFKEVSIRIYQDKFKWVYFLSDIGVIDNLDSNACQSLLRLNEFNLRTPFFTVGLNEKKDGVVHTRIPLLNLDNVEMRRVFEALLNLSGEVKKTFGFV,soluble
3,MFGLRTRNQEAESEYRRFIKGLSDSMAMIEFDTRGIILNANDLFLSCVGYTREAIVGKHHSIFCDRGYVQSPRYQQFWDDLKMGKHKRGTFERLTSQRERLVLEASYFPIESEHGQIEKVVKIASDVTQQRLESEQKEAILNALDLSLATIEFDREGYILTANQNFLKTLGYELSDVQGKHHKLFCFDDFYQENPGFWKDLAAGQFKSGQFLRRSASGDKVYIEATYNPIFDPAGNVIKVVKFASDITDKVQRDLNISQAIADSSFIARNASEEATSNVCGAEHSLNEFRTMIEEVLRAVTACDDK,not soluble
4,MKAVIVYASVHHGNTKKIAEAMASVISADVIDVTRKIKPDLSGYDVIGFASGVYFHTFHERIKKCIEENLFSKGQKVFLVATCGLGYRDYTKGIKDILAKKHVSFIGNFQCRGWDTYGIFGKIGGIAKKHPNDRDLKEAQQFVLKTVCEKTIDDVALLEHHHHHH,soluble
5,MYEGLLIDIDYLLNVVKELKINFDKKIKTLNLLIERNIPIVLYTENNKEYVDTIMKYLKIKEPAIIVEGAQIYSPFDLSYEAVFPLSINTVCKLGNWAMDRKMDMSISTDKKVIDYSEWLKELRQVNYKNAGDKLPSAVKVDICMKNDDKRIELLNFIGKNNLECYAHMYLNHVACINSIVDKGNTLKYLANKKKWDIKKFAMIGDYSKDTSIFDEVGFLMSISDFTKDFEKNFDKTLKSDMMSIV,soluble
6,MGSDKIHHHHHHTNEDIVKNNVNQPEKVKGNLSLVISSTSNSSRAADNEESGVTDPGIEGESTVTDAVIILNRLDENGNLTKEEFGGYLTKAQLNETTASGETIYNPFFTLANSGWYKVLVVLNPTESIEAIANSQQSTDKSKYEQIAESSYTTTGDITIAAAGQFMMVNKKEIKVDVLSNNYEDPTIKEVEVERVVSKINYVIAKPNNLYPLTVQTTDYAIAETTSGYYIYPDNKAVRLTGLHKAKNLDNDNSDVWIHEGTDGTDRRAFIKTEKTYGQTGEHIFTLLEPFPKFEYYTTSTDGELDWTVKLDKYALVNLSNSVYTARHLTDASWENCKHSASCVFLSKL,not soluble
7,MGSDKIHHHHHHAETVVVRFGLFAESIPVADLQKAAETGEFPSSLNLFTRRLSEQQRRTLIGALRMRVPLNVVTISRLLNTQIGTTILNDLSRAVVRKDQSGAKALRASLVLGSTAPQGLSILSFITAYPSRSLEINLPQAFQVAGSLNNAFWRTQQFMLAISPQLDPAKPQISIPFDPSQPGNAQVQVLKLNLNDQKRNRQIPADIYWSTSATQEKPVIIYSHGMGSVRTDLHYLAEHLASHGYIFVALEHPGSNQANTDLATKGKVRLLEPQEFLNRPQDVSFVLDVLEKLNQTTGNPLQGKLATNNTMVIGYSFGGGTALSLAGAELQIAGIRERCQNKLTILSLGETIQCVAQELPEKTYQLRDNRIKQAIALTPTTSLMFGETGLTKVQIPTLIVAASADKTTPALTEQILGFSKIPSPKWLVGIIGGTHLSVKDPSTTLDQVDKPNTPLTGGEIVGEQATDVRQFVKAIALAMVAQLTPEAEKYAVFLTPDYAQLASTESFPFRIVTEIPPQAIPIGKQ,not soluble
8,MAHHHHHHMNWCLSRRWRFRLELLSASLLSRVHIGCHAEPRNNMSTTPAKNELASVHESIQITLSKIQEDSAKRSSQEQQLISSVASAKCLAGIFSAHSPTNDEVVRALKSAGEEEQVEAECLQRYQQFVEAKKRCFTSVEADLRSVSKVLSGVLAASEKVEEPTSGDCRAEVQENQCDGELLHLLRLWRTVVCLHDLVLGSLIKRGSDGSPCELQRFSAGEERSYVRESALRNTVADTEKMLLAIRKRWRDLTEEAEAVRATAESMTPLPFSDEATLLIADEKDEPLVASINQGLHELQQSSDRLRKKKVAVDEGAAALLEKVRNLSLQTAACRCSVEAFSQRSREAADDANSLMSAKARALQELHRKAQECASEQGLLDRDVGSYKQLCALLVEWAENEKSEAERIVAAEQEYHSLVSKERAQQEKLRCLRLSIKNLESEVRDASTEKQRIVGEVQYLSKLVSNPTVVTQVLARASEECHPEREVTALHNYLRFVQKARLERHTSHE,not soluble
9,MRSQRELTSPMTPLENPGDISDKPRLTTQKLSLGYGQQLIINKLSLSIKNGAFSVIIGPNGCGKSTLLRALSRSLLPQNGSIRLDQQDIQHYKAKVFARQLSLLSQGASISETLTVFDLVSRGRYAHQSFFHQWSTEDERIVKAAISAVNLESLVQQRVSELSGGQRQRAWFAMTLAQHTPIVLLDEPTTYLDIAHQIEMLDLCQELQQQGKTLVLVLHDINQALRYATHLIMLKEGQIYAEGLPESIVTEDSIAAVFGLRCRIITDPESGKPLVIPRRQSR,not soluble
10,MGSDKIHHHHHHMLKENRSLDRGIEILETLAREGAMSLADLHRATGLPKSTLRRLLQTLIARKIVRRSLADKLYRTLVVFPDISGEVMPKGMLHISEAAIPRALALTKEIGWPSDIHIRETRAMRIIDNTRHASTFHVERGQINQRVSHFGSATGLACLAEMKDAEIATIYEAFKPDLQWGPVRFGLDLAGLMARIEQVRQVGYAERLSAPMSDPDWDTDLRAIAVAIKARGRVVGGLSVLWLRPYKPVEEFARLHLEALQTAAAEINATLDAVWEDAAT,not soluble
11,MGSDKIHHHHHHMFLVCGEALFDIFTRADDGGSLNRLGFDAIAGGSPFNVAIGLRRLGVEAAFFAGLSTDYLGRRLRAVLEQETVNAEHLIEFDAPTTLAMVAVGSDGSPTYSFRGDGCADRQLRLEHLPELDERVRGIHVGSFSLVVQPIADTLLALVARESARRLISLDPNVRLNPAPDIQRWRTQIAAFAEHAHLIKVSDEDLHLLYPDSDPQQIAEGWLGKRTQLVIVTRGTQGASVFTRQHGTWSVPAKTVVTADTVGAGDTFQAALLTFLSERQLDTPQGLSTLSRETLDEMLNFAVGAAALTCTKVGPDLPYRHQLG,not soluble
12,MTHRPELHVTPEIGILDAPAGALFDGTRWHLFHQFRPKATAPSRWAHDYATTDPFNWEICDDVIAPQGDEIRLRAGSVTSDGKTTRLYFTSITNEGDSIHLAEITDLDATTYDVNDDATTTDPHVTRLGQVVADQGGYTNFRSPCVVPNWVTADDRDEGHSGWIMLAVTGDMDEPTLVILDSENGTDWELRGPLKVVGNSGIEAERPVAPRIIRLRDEIDQNVYDILIVTIEIGGIDRSGYLVGKLHNNIFTVVSPFTRIDYGHDFTRPRNTNYTSHLNSSVAPEHRYSHAHVFGLMNGIGRLDDATTHLSFREEQWANCLSLPRRMTLQGGKIYHTPVAGLPDAIRDSDHAIMWTGLLDVPLGEKVTVELVDTTGNIAAKITHYGDLLELDRSMNPHHEGDDIAVAPLTEDDTDSVTIIVDGSTVEVFADGGQIAMASRVYFNGYCEAFTPQASDGADILRSDVTKPLG,not soluble
13,MINQNATYMEESAQSAVDNFGLGFNLGNTLDANGCGTGKPVATYETFWGQPETTQDMMTFLMQNGFNAVRIPVTWYEHMDAEGNVDEAWMMRVKAIVEYAMNAGLYAIVNVHHDTAAGSGAWIKADTDVYAATKEKFKKLWTQIANALADYDQHLLFEGYNEMLDGNNSWDEPQKASGYEALNNYAQDFVDAVRATGGNNATRNLIVNTYAAAKGENVLNNFMLPTDAVNNHLIVQVHSYDPWNFFNTKTTWDSECHNTLTEIFSALSKKFTTIPYIIGEYGTHGESDISVSKSSPAEKIKLAADQAADMVKLAKDHHSATFYWMSIFDGSDRIQPQWSLPTVVEAMQEAYNN,soluble
